Assay results: US11078245B2, “Colon and pancreas cancer peptidomimetics” (PRECISION BIOLOGICS, INC., priority 2010, dated 2021)

Tests used:
[1] = Preliminary non-GLP toxicity study; assay type: in vivo, BALB/c mice
Description: A preliminary non-GLP toxicity study using a research-grade preparation of NEO-101 was also conducted. Normal BALB/c mice were Injected with a single IV dose of saline, or 3, 10, 30, or 100 mg/kg of NEO-101 (n=3 female mice per group). In-life parameters measured included body weights and clinical observations. Mice were humanely sacrificed 72 hours following the injection and specimens were collected for analysis. Post-mortem parameters included macroscopic examination, blood cell counts, serum chemistries, and histopathological evaluation of selected major organs and tissues. […] No other toxicities were detected in these studies potentially associated with NEO-101, including during histopathological examination of the major organ systems in these mice.

[2] = system: human AsPC-1 pancreas tumor; assay: AsPC-1 pancreas tumor xenograft model; assay type: in vivo, nude mice; settings: 200 μg ip
Description: The NEO-101 antibody was tested for anti-tumor activity using the human AsPC-1 pancreas tumor xenograft model in nude mice. In this activity model, mice were implanted with human AsPC-1 tumor cells and allowed to establish to approximately 20-50 mm^3, measurable with a caliper in approximately 4-6 days. The treatment regimen included intraperitoneal injection of 200 μg of research-grade NEO-101 or a negative control human IgG (Pierce), followed on the next day with an intraperitoneal injection of IL-2-activated normal human PBMCs (approximately 2×10^7 per mouse per injection). Two cycles of treatment were administered such that antibody injections occurred on days 5 and 8, and PBMC injections occurred on days 6 and 9 in this study. Throughout the study, the tumor growth was monitored twice weekly by measurement with a caliper. Tumor volume was calculated using the equation: […], in units of cubic millimeters. If a tumor reached approximately 800 mm^3, or became ulcerated or necrotic, the mouse was humanely sacrificed. The study was terminated on study day 35.
This anti-tumor activity study was repeated in a separate study using the same AsPC-1 pancreas tumor model and the 200 μg dose of NEO-101 antibody. However, in the second study, four cycles of treatment were administered instead of two cycles. […]

lung tumor tissue = assay: Immunohistochemistry of lung tumor tissue; assay type: binding; settings: 10 μg/ml biotinylated antibody
Description: Slides were deparaffinized, rehydrated and antigen retrieval was performed. Slides were then stained with 10 μg/ml biotinylated NEO-101 antibody and then streptavidin-HRP was applied for color development. Slides were counter stained with H.E., hydrated and fixed. The results
The specificity of NEO-101 for pancreatic and colorectal tumor tissue was further shown by staining lung tumor tissue. While there was significant binding to these tissues with a commercial antibody that recognizes normal MUC5AC, there was no reactivity of NEO-101 with these lung tumor tissues.

Pharmacokinetics = assay type: in vivo, mice; settings: for serum half-life (t½): single dose 100 mg/kg
Description: To determine whether gender impacted the disposition of NEO-101 in vivo, each treatment group contained four males and four females. Clearance, Cmax and half-life following a single dose of 10 or 100 mg/kg were compared by non-parametric Mann-Whitney test. […] However, the serum half-life of NEO-101 was shorter in females than in males. […] However, it is likely that this is a spurious observation, arising from high inter-animal variability, as this difference in half-life was not replicated following multiple doses, regardless of dose level.
The data provides useful guidance for the dosing schedule of possible therapeutic regimes. Mice injected intravenously with 10 mg/kg of NEO-101 may be used for comparison to the doses used in therapy regiments for humans, for instance.

LS174T colorectal tumor = LS174T colorectal tumor xenograft model; assay type: in vivo, nude mice; settings: same treatment regimen; last day P=0.0145
Description: Since the LS174T colorectal tumor cell line served as a good target in vitro in the ADCC assay, this cell line was used in a xenograft tumor model. The LS174T cells were implanted subcutaneously in nude mice and the same treatment regimen was administered to these mice. […] Nonetheless, we observed a 2-3-fold reduction in tumor growth in NEO-101 treated mice compared to the 2 control groups of mice following the treatment cycles. The anti-tumor effect upon treatment with NEO-101 was significant on the last day of measuring tumors with P=0.0145 by one-way ANOVA. However, many of the tumors in the control groups became ulcerated and were greater than 1000 mm^3 and the study was terminated.

[3] = system: colorectal cancer cell line LS174T; assay: Immunofluorescence with FITC labeled NEO-101; assay type: cell-based; settings: 2 μg/ml FITC labeled antibody
Description: (§1) FACs data showing NEO-101 antibody binding to colon cancer and pancreatic cancer cell lines. Cells were washed and suspended in either 2 μg/ml NEO-101-FITC or isotype control antibody-FITC for 1 hour, washed and then subjected to FACS analysis. Experiments with all cell lines were repeated at least three times. […] DAPI was used to stain the nucleus. […] The staining pattern of these pancreatic and colorectal tumor cells was predominantly membrane-associated, consistent with the expression profile of MUC5AC.

[4] = system: pancreatic cancer cell line AsPC-1; assay: Immunofluorescence with FITC labeled NEO-101; assay type: cell-based; settings: 2 μg/ml FITC labeled antibody
Description: as §1

human tissues = assay: Immunohistochemistry of human tissues, overall; assay type: binding
From the text: Thus, the NPC-1 epitope is expressed by colon and pancreatic tumor cells but not normal colon or pancreatic […] cells. Therefore, the NPC-1 epitope may be used as a tumor-specific marker or a therapeutic target for colon and pancreatic cancer. Further, peptidomimetics of the NPC-1 epitope (e.g., the polypeptide of SEQ ID NO: 1-24) as described herein may be used in the detection and treatment of cancer (e.g., colon, pancreas, breast, lung, ovarian, stomach, esophageal).

[5] = system: lung cancer cell line A549; assay: Immunofluorescence with FITC labeled NEO-101; assay type: cell-based, human; settings: 2 μg/ml FITC labeled antibody

B1: NEO-101: Chimeric NEO-101 antibody, engineered in CHO-DG44 production cell clone 4B7; targets a variant of MUC5AC (protein)
light: QVVLTQSPVIMSASPGEKVTMTCSASSSISYMYWYQQKPGTSPKRWIYDTSKLASGVPARFSGSGSGTSYSLTISNMEAGDAATYYCHQRDSYPWTFGGGTNLEIK
heavy: QVQLKESGPDLVAPSQSLSITCTVSGFSLSKFGVNWVRQPPGKGLEWLGVIWGDGSTSYNSGLISRLSISKENSKSQVFLKLNSLQADDTATYYCVKPGGDYWGHGTSVTVSS
Question: Which results are given for B1?
Answer: serum aspartate transaminase (AST) ([1]; 2 out of 3 mice that received 100 mg/kg): mild, but statistically insignificant elevation; body weight, blood cell counts, and histopathology of 7 major organs and tissues ([1]; single IV dose 3, 10, 30 or 100 mg/kg, 72 hours): no significant changes; tumor growth versus human IgG control ([2]; four cycles, with PBMCs, significant from Day 18 (P=0.0044)): very similar growth inhibition; tumor growth versus control groups ([2]; two cycles, with IL-2-activated human PBMCs, significant from day 13 (P=0.0072)): Tumor growth inhibition was observed; reactivity with lung tumor tissues (lung tumor tissue): no reactivity; serum half-life (t½) (Pharmacokinetics; females): 109.5 ± 14.72 h; serum half-life (t½) (Pharmacokinetics; males): 285.4 ± 139.5 h; clearance (Pharmacokinetics; mice): low clearance; volume of distribution (Pharmacokinetics; mice): limited volume of distribution; gender-specific differences in clearance or Cmax (Pharmacokinetics; single dose of 10 or 100 mg/kg): No significant gender-specific differences were observed; reduction in tumor growth compared to the 2 control groups (LS174T colorectal tumor): 2-3 fold; binding by immunofluorescence [3]: binds; binding by immunofluorescence [4]: binds; cross-reactivity in other normal human tissues stained (human tissues): no cross-reactivity; binding by immunofluorescence [5]: does not bind
